The target in test [1] is biotinylated human FcRn (hFcRn; p51 subunit residues 24-297 with C-terminal Avi-tag, β2-m residues 21-119) (human) (UniProt P55899). Briefly: Biacore SPR, pH 7.4, steady state, 1000 nM antibody. (In general: Surface plasmon resonance follows binding to a sensor surface in real time, without labels.)
For test [2] the target is unchanged. Put plainly: Biacore SPR, pH 6.0, apparent affinity.
Test [3] shares this target. Briefly: Biacore SPR; pH 6.0 affinity (M^-1) over pH 7.4 steady state RU.
The target is the same in test [4]. Put plainly: Biacore SPR; second ratio column (inverse of c7).

Chain of biotinylated human FcRn (hFcRn; p51 subunit residues 24-297 with C-terminal Avi-tag, β2-m residues 21-119) (human) (P55899 24-297, form in doubt, chain 1 of 2): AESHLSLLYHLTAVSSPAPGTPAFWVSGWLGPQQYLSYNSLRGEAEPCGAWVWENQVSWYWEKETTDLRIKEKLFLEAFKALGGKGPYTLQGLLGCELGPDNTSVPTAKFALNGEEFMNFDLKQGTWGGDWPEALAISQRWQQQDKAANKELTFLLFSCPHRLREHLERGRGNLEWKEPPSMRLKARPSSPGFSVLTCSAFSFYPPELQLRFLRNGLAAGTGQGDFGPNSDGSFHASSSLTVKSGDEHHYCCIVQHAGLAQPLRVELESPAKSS
Chain of biotinylated human FcRn (hFcRn; p51 subunit residues 24-297 with C-terminal Avi-tag, β2-m residues 21-119) (human) (P61769 21-119, form in doubt, chain 2 of 2, further chain): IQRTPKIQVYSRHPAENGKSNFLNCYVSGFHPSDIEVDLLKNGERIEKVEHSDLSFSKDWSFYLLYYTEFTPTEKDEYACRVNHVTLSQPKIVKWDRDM

Take “mAb1 MEWY variant (T256E/T307W/N434Y) (antibody)”: the Steady State Binding, pH 7.4 (RU) in test [1] was determined as 46.6 RU. Also, the Ka in test [2] was determined as 7.04e+07 M⁻¹. Also, the Ratio (pH 6.0/pH 7.4) in test [3] is 1.51e+06. Besides, the Ratio (pH 7.4/pH 6.0) in test [4] stood at 6.62e-07.

In test [1], “mAb1 YTQF variant (M252Y/T307Q/N434F) (antibody)” returned a Steady State Binding, pH 7.4 (RU) of 59.9 RU. In test [2], the Ka turned out to be 5.65e+07 M⁻¹. Also, the Ratio (pH 6.0/pH 7.4) in test [3] was 943000. The Ratio (pH 7.4/pH 6.0) in test [4] is 1.06e-06.

“mAb1 YTWF variant (M252Y/T307W/N434F) (antibody)”: the Steady State Binding, pH 7.4 (RU) in test [1] worked out at 62.6 RU. The Ka in test [2] came to 6.54e+07 M⁻¹. Also, the Ratio (pH 6.0/pH 7.4) in test [3] is 1.04e+06. Further, the Ratio (pH 7.4 steady-state RU / pH 6.0 affinity) in test [4] turned out to be 9.57e-07.

In test [1], “mAb1 YETY variant (M252Y/T256E/N434Y) (antibody)” registered a Steady State Binding, pH 7.4 (RU) of 22.6 RU. Moreover, the Ka in test [2] amounted to 3.34e+07 M⁻¹. Further, in test [3], the Ratio (pH 6.0/pH 7.4) turned out to be 1.48e+06. Also, the Ratio (pH 7.4/pH 6.0) in test [4] came to 6.77e-07.

In turn, “mAb1 MDQY variant (T256D/T307Q/N434Y) (antibody)” returned a Steady State Binding, pH 7.4 (RU) in test [1] of 49.4 RU. The Ka in test [2] turned out to be 3.69e+07 M⁻¹. The Ratio (pH 6.0/pH 7.4) in test [3] stood at 747000. Also, the Ratio (pH 7.4/pH 6.0) in test [4] worked out at 1.34e-06.

Regarding “mAb1 MEQF variant (T256E/T307Q/N434F) (antibody)”, the Ka in test [2] amounted to 142000 M⁻¹.

For the substance “mAb1 YETN variant (M252Y/T256E) (antibody)”, in test [1], the Steady State Binding, pH 7.4 (RU) is 9.8 RU. The Ka in test [2] worked out at 7.81e+06 M⁻¹. Besides, in test [3], the Ratio (pH 6.0/pH 7.4) came to 797000. In test [4], the Ratio (pH 7.4/pH 6.0) is 1.25e-06.

In test [1], “mAb1 YEWN variant (M252Y/T256E/T307W) (antibody)” showed a Steady State Binding, pH 7.4 (RU) of 69.6 RU. In addition, in test [2], the Ka was 6.41e+06 M⁻¹. Moreover, the Ratio (pH 6.0/pH 7.4) in test [3] was 92100. Further, the Ratio (pH 7.4/pH 6.0) in test [4] turned out to be 1.09e-05.

Substance “mAb1 MTWY variant (T307W/N434Y) (antibody)” had a Steady State Binding, pH 7.4 (RU) in test [1] of 37.2 RU. In test [2], the Ka was 4.65e+07 M⁻¹. The Ratio (pH 6.0/pH 7.4) in test [3] stood at 1.25e+06; in test [4], 8e-07.

Substance “mAb1 MDQF variant (T256D/T307Q/N434F) (antibody)” displayed a Steady State Binding, pH 7.4 (RU) in test [1] of 55.3 RU. In addition, the Ka in test [2] came out at 6.62e+06 M⁻¹. Moreover, the Ratio (pH 6.0/pH 7.4) in test [3] came out at 120000. Moreover, the Ratio (pH 7.4/pH 6.0) in test [4] worked out at 8.35e-06.

For the substance “mAb1 MDWN variant (T256D/T307W) (antibody)”, the Steady State Binding, pH 7.4 (RU) in test [1] was determined as 12.2 RU. In addition, in test [2], the Ka was 5.92e+06 M⁻¹. Moreover, the Ratio (pH 6.0/pH 7.4) is 485000 in test [3] and 2.06e-06 in test [4].

In test [1], “mAb1 YDTF variant (M252Y/T256D/N434F) (antibody)” returned a Steady State Binding, pH 7.4 (RU) of 57.7 RU. Further, the Ka in test [2] was determined as 2.96e+07 M⁻¹. In addition, the Ratio (pH 6.0/pH 7.4) in test [3] came to 513000. For the same substance, the Ratio (pH 7.4/pH 6.0) in test [4] worked out at 1.95e-06.

As for “mAb1 MEQY variant (T256E/T307Q/N434Y) (antibody)”, the Steady State Binding, pH 7.4 (RU) in test [1] is 38.6 RU. Further, the Ka in test [2] worked out at 2.38e+07 M⁻¹. Moreover, the Ratio (pH 6.0/pH 7.4) in test [3] stood at 617000. The Ratio (pH 7.4/pH 6.0) in test [4] was 1.62e-06.

Regarding “mAb1 MDTF variant (T256D/N434F) (antibody)”, in test [1], the Steady State Binding, pH 7.4 (RU) was 29.2 RU. Besides, the Ka in test [2] was 3.34e+07 M⁻¹. Moreover, the figures for the Ratio (pH 6.0/pH 7.4) in test [3] and in test [4] were 1.14e+06 and 8.74e-07, respectively.

Regarding “mAb1 YTE variant (M252Y/S254T/T256E) (antibody)”, in test [1], the Steady State Binding, pH 7.4 (RU) came out at 13.2 RU. Besides, the Ka in test [2] amounted to 2.92e+06 M⁻¹. In addition, the Ratio (pH 6.0/pH 7.4) in test [3] came out at 221000; in test [4], 4.52e-06.

With “mAb1 YTWN variant (M252Y/T307W) (antibody)”, the Steady State Binding, pH 7.4 (RU) in test [1] came to 15.9 RU. In test [2], the Ka turned out to be 8.47e+06 M⁻¹. The Ratio (pH 6.0/pH 7.4) in test [3] amounted to 533000. In test [4], the Ratio (pH 7.4/pH 6.0) came to 1.88e-06.

In the case of “mAb1 AAA variant (T307A/E380A/N434A) (antibody)”, the Steady State Binding, pH 7.4 (RU) in test [1] came out at 13.9 RU. Further, in test [2], the Ka came out at 562000 M⁻¹. In addition, the values for the Ratio (pH 6.0/pH 7.4) in test [3] and in test [4] were 40400 and 2.47e-05, respectively.

The substance “mAb1 MTQY variant (T307Q/N434Y) (antibody)” came in with a Steady State Binding, pH 7.4 (RU) in test [1] of 38.4 RU. Also, the Ka in test [2] was found to be 3.09e+07 M⁻¹. The Ratio (pH 6.0/pH 7.4) in test [3] is 805000; in test [4], 1.24e-06.

In test [1], “mAb1 MTQF variant (T307Q/N434F) (antibody)” came in with a Steady State Binding, pH 7.4 (RU) of 34.2 RU. Moreover, in test [2], the Ka is 2.33e+07 M⁻¹. Moreover, the Ratio (pH 6.0/pH 7.4) in test [3] turned out to be 681000; in test [4], 1.47e-06.

In test [1], “mAb1 YTQY variant (M252Y/T307Q/N434Y) (antibody)” gave a Steady State Binding, pH 7.4 (RU) of 71.5 RU. Also, in test [2], the Ka stood at 6.33e+07 M⁻¹. The Ratio (pH 6.0/pH 7.4) in test [3] was 885000. Further, the Ratio (pH 7.4/pH 6.0) in test [4] amounted to 1.13e-06.

In the case of “mAb1 YDQN variant (M252Y/T256D/T307Q) (antibody)”, in test [1], the Steady State Binding, pH 7.4 (RU) turned out to be 19.8 RU. Besides, in test [2], the Ka came out at 8.7e+06 M⁻¹. For the same substance, the Ratio (pH 6.0/pH 7.4) in test [3] turned out to be 439000. Further, in test [4], the Ratio (pH 7.4/pH 6.0) is 2.28e-06.

Regarding “mAb1 YEQN variant (M252Y/T256E/T307Q) (antibody)”, the Steady State Binding, pH 7.4 (RU) in test [1] came to 15.2 RU. For the same substance, the Ka in test [2] worked out at 4.59e+06 M⁻¹. Besides, the Ratio (pH 6.0/pH 7.4) in test [3] is 302000. Besides, the Ratio (pH 7.4/pH 6.0) in test [4] was determined as 3.31e-06.

In test [1], “mAb1 LS variant (M428L/N434S) (antibody)” registered a Steady State Binding, pH 7.4 (RU) of 18.3 RU. The Ka in test [2] stood at 3.68e+06 M⁻¹. In addition, the Ratio (pH 6.0/pH 7.4) in test [3] came to 201000; in test [4], 4.97e-06.

In the case of “mAb1 MTWF variant (T307W/N434F) (antibody)”, the Steady State Binding, pH 7.4 (RU) in test [1] stood at 30.5 RU. Moreover, the Ka in test [2] came to 2.62e+07 M⁻¹. The Ratio (pH 6.0/pH 7.4) was 859000 in test [3] and 1.16e-06 in test [4].

As to “mAb1 MDTY variant (T256D/N434Y) (antibody)”, the Steady State Binding, pH 7.4 (RU) in test [1] is 37.1 RU. Also, the Ka in test [2] is 6.41e+07 M⁻¹. Also, the results for the Ratio (pH 6.0/pH 7.4) in test [3] and in test [4] were 1.73e+06 and 5.79e-07, respectively.

In test [1], “mAb1 YTQN variant (M252Y/T307Q) (antibody)” had a Steady State Binding, pH 7.4 (RU) of 10.6 RU. The Ka in test [2] is 3.6e+06 M⁻¹. Moreover, the Ratio (pH 6.0/pH 7.4) in test [3] amounted to 340000. Also, the Ratio (pH 7.4 steady state RU / pH 6.0 affinity) in test [4] was 2.94e-06.

Substance “mAb1 YDWN variant (M252Y/T256D/T307W) (antibody)” showed a Steady State Binding, pH 7.4 (RU) in test [1] of 25.9 RU. Further, the Ka in test [2] amounted to 1.01e+07 M⁻¹. In addition, the Ratio (pH 6.0/pH 7.4) in test [3] is 390000. In test [4], the Ratio (pH 7.4/pH 6.0) was 2.56e-06.

On to “mAb1 MEQN variant (T256E/T307Q) (antibody)”, for which, in test [2], the Ka was 2e+06 M⁻¹.

For the substance “mAb1 MDWF variant (T256D/T307W/N434F) (antibody)”, the Steady State Binding, pH 7.4 (RU) in test [1] was determined as 47.1 RU. The Ka in test [2] was determined as 2.81e+07 M⁻¹. Besides, the Ratio (pH 6.0/pH 7.4) in test [3] is 597000. Also, the Ratio (pH 7.4/pH 6.0) in test [4] came out at 1.68e-06.

For the substance “mAb1 MDQN variant (T256D/T307Q) (antibody)”, the Steady State Binding, pH 7.4 (RU) in test [1] came out at 10.7 RU. Further, in test [2], the Ka was 4.31e+06 M⁻¹. For the same substance, the results for the Ratio (pH 6.0/pH 7.4) in test [3] and in test [4] were 403000 and 2.48e-06, respectively.

“mAb1 MEWN variant (T256E/T307W) (antibody)”: the Ka in test [2] worked out at 3.1e+06 M⁻¹.

Values taken from patent US20190263934A1.
